# Data taken from article PMC7803741 (2021).
# Read-outs that look alike come from different tables or passages of the source.
# B1: GABAA receptor γ2 subunit 375-424 (domain or fragment)
# chain: PAPTIDIRPRSATIQMNNATHLQERDEEYGYECLDGKDCASFFCCFEDCR
# B2: GABAAR γ2 subunit GIM (GABARAP interacting motif, 398–415) (peptide)
# chain: ERDEEYGYECLDGKDCAS
# B3: AnkG-WT peptide (peptide)
# chain: PEDDWTEFSSEEIREARQAAASHAPS
# B4: AnkG-ER peptide (peptide)
# peptide: PEDDWTRFSSEEIREARQAAASHAPS
# B5: AnkB-WR peptide (peptide)
# peptide: VEEERVIVSDEEIEEARQKAPLEITEY
# Columns and labels:
# Test in all cases: ITC
# [1] = target: T1, GABAAR-associated protein (GABARAP) (mouse, UniProt Q9DCD6 1-117)
# [2] = target: GABARAP K24E (mouse, UniProt Q9DCD6 1-117, K24E)
# [3] = target: GABARAP K66E (mouse, UniProt Q9DCD6 1-117, K66E)
# [4] = target: GABARAP E17A (mouse, UniProt Q9DCD6 1-117, E17A)
# [5] = target: T1, GABAAR-associated protein (GABARAP); remark: listed apart in the source
# [6] = target: LC3B (mouse, UniProt Q9CQV6 1-120)
# [7] = target: GABARAPL2 (mouse, UniProt P60521 1-117)
# [8] = target: LC3A (mouse, UniProt Q91VR7 1-121)
# T1 sequence (Q9DCD6 whole entry): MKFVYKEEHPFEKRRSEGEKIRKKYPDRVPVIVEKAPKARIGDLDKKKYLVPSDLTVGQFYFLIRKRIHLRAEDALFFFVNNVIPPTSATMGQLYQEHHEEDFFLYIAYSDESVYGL
# GABARAP E17A, sequence (Q9DCD6 whole entry E17A): as the sequence (Q9DCD6 whole entry) above, with E17A counted along it
# GABARAPL2, sequence (P60521 whole entry): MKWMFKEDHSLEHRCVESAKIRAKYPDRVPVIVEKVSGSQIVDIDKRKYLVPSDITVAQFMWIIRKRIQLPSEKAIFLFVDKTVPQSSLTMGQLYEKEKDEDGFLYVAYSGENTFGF
# GABARAP K24E, sequence (Q9DCD6 whole entry K24E): as the sequence (Q9DCD6 whole entry) above, with K24E counted along it
# GABARAP K66E, sequence (Q9DCD6 whole entry K66E): as the sequence (Q9DCD6 whole entry) above, with K66E counted along it
binder,measurement,setting,value
B1,Kd,[1],5.1 µM
B2,Kd,[2],> 100 µM
same,Kd,[3],23.6 µM
same,Kd,[4],6.8 µM
same,Kd,[5],6.8 µM
same,Kd,[6],> 300 µM
same,Kd,[7],> 200 µM
same,Kd,[8],> 300 µM
B3,Kd,[5],0.007 µM
B4,Kd,[5],0.007 µM
B5,Kd,[5],> 100 µM
